Measured values: the nanobody polyreactivity screen of Harvey et al. (2022)

Assay: yeast display, Sf9 membrane polyspecificity reagent, FACS + sequencing; frameworks hold sequencing errors
Procedure, shortened: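 Synthetic nanobody libraries on Saccharomyces cerevisiae BJ5465 were galactose-induced for 36–48 hours, stained 1 hour at 4 °C with 10% biotinylated, detergent-solubilized Sf9 membrane reagent and enriched on streptavidin microbeads. FACS then separated cells into low and high (top ~1%) gates by anti-HA (expression) and streptavidin (reagent binding) fluorescence. Genes were colony-PCR amplified, MiSeq 2 × 250 sequenced and CDR-length filtered. A clone's polyreactivity label is that of its gate of origin.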

Sequence | polyreactivity (PSR sort gate)
QVQLVESGGGLVQAGGSLRLICAASGRISVFYTMGWYRQAPGKERELVAVIRTSGGRTNYADSVKGRFTISRDNAKNTVYLQMNSLKPEDTAVYYCAARVVRYGYKYYYWGQGTQVTVSS | low polyreactivity
QVQLVESGGGLVQAGGSLRLSCAASGIILRYYVMGWYRQAPGKERELVAAITSRGGSTYYADSVKGRFTISRDNAKITVYLQMNSLKPEDTAVYYCAAGYRNVNTFDYWGQGTQVTVSS | high polyreactivity
QVQLVESGGGLVQEGGSLSLICAASGRIYTPYAMGSYRQAPGKERELVAVIRDGSTYYADSVKGRFTISRDNAKNTVYLQMNSLKPADTAVYDCRYDIWVWWSGAYDYWGQCTQVTVSS | low polyreactivity
QVHRVESGGGLVQAGGSLRVSCAATGINFSDYAMGWYRQEPGKERQLVAAITGGGSTYYADSVKGRFTISRDNAKNTVYLQMNSLKPEDTAVSYCNAVWARLWIRSTEVDYRGQGTQVTVSS | low polyreactivity
QVQLVESGVGLVQAGGSLRLSCAPSGRTFFWYAMGWYRPAPGKERELVAAIRGAGRTNYADSVKGRFTISRDNAKYTVYLHMNSLKPEDTAVYYCAAQHYPWRRYDYWGLGTQVTVSS | high polyreactivity
QVQLVESGGGLVQAGGSLRLSCAASGYILGGNAMGWYRQAHGKERELDAVIRKSGGSTYADSVKGRFTISRDNAKNSVYLQMNSLKPEDTAVYYCNADTLAGVYFYQSDYWGQGTQVTVSS | low polyreactivity
QVQLVESGGGLVQAGGSLRLSCAASGHIFPTNPMGWYRQAPGKERQLVAVISESVGSTYYADSVKGRFTISRDNAKNTVYLQMNSLKPEDTAVYFCAKQSRYPSLDADYDYWGQGTQVTVSS | low polyreactivity
QVQLVESGGGLVQAGGSLRLSCAASGRTFWGYAMGWYRPAPGKERELVAAISSGGDTTYADSVKGRFTISRDNAKNTVYLQMNSLKPEDTAVFYCAADRWYSRYTRYGYWGQGTQVTVSS | low polyreactivity
QVQLVESGGGLVQAGGSLRLSCAASGFIFRYYAMGWYRQAPGKERELVAAITWSGGSTYYADSVKGRFTISRDNAKNTVYLQMNSLKPEDTAVYYCAADLYYFRYPGYDYWGQGTQVTVSS | high polyreactivity
QVQLVESGGGLVQAGGSLRLSCAASGLIFTYYAMGWYRQAPGKERELVAAITSGGTTNYADSVKGRFTISRDNAKNTVYLQMNSLKPEDTAVYYCAADYDTGSERYEYWGQGTQVTVSS | low polyreactivity
QVQLVESGGGLVQAGGSLRLSCAASGSIFSGNPMGWYRQAPGKERELVAAIDWSGDSTYYADSVKGRFTISRDNAKNTVYLQMNSLKPEDTAVYYCNTVSFSWGYSAYDYWGQGTQVTVSS | low polyreactivity
QVQLVESGGGLVQAGGSLRLSCAASGIIFNGNTMGWYRQAPGKERELVAAITSGGTTSYADSVKGRFTISRDNAKNTVYLQMNSLKPADTAVYYCAADHPAFGPGYSFDYWGQGTQVTVSS | low polyreactivity
QVQLVESGGGLVQAGGSLRLSCAASGRIFDCYAMGWYSQAPGKERELVAAITSRGGSTYYADSVKGRFTISRDNAKNTVYLQMNSLKPEDTAVYYCAKRSTSRGYDYWGQGTQVTVSS | high polyreactivity
QVQLVESGGGLVQAGVSLRIRCAASGSIFFFNAMGWYRQAPGKEREFVAAITSSSGRTYYAYSVKVRFTISRDNAKNTVYLQMKSLKPEDTAVYYCAAQVPEDNETVDYWGQGTQVTVSS | low polyreactivity
QVQLVESGGGLVQAGGSLRLSCAASGNILVENAMGWYRQAPGKERELVAVSTSGTSTYADSVKGRFTISRDNAKNSVSFQMNSLKPEDTAVYYCNARRINTLYDSWGQGTLVTVSS | low polyreactivity
QVQLVESGAGLVQAGGSLRLSCAASGFIFAGYAMGLYRQAPGKERELFAAISSRGGSTYYADSVKGRFTISRDNAKNPVDLQMNSLKPEDTAVYYCNKYYYGFTPVGYKKMDYWGQGTQVIVSS | low polyreactivity

Sequence | polyreactivity (PSR sort gate)
QVQLVESGGGLVQAGGSLRLSCAASGSTFVGYAMGWYRQAPGKERELVADITSGGGITYYADSVKGRFTISRDNAKNTVYLQMNSLKPEDTAVYYCAVQYYNVLYYQYDYWGQGTQVTVSS | low polyreactivity
QVQLVESGGGLVQAGGTLRLSCAASGRTFVPYAMGWYRQAPGKERELVATISSSGGSTYYADSVKGRFTISRDNSKNTVYLQMNSLKPEDTAVYYCATADRWSSSYYRSVRWYHYDYWGQGTQVTVSS | low polyreactivity
QVQLVESGGGLVQAGGSLRLSCAASGSIFRYNAMGWYIQAPGKERELVAAISWNGARTYYADSVKGRFTISRDNAKNTVYLQMNSLKPEDTAVYYCNAGTFTRRRGLDYWGQGTQVTVSS | low polyreactivity
QVQLVESGGGLVQAGGSLRISCAASGRTFYSYAMGWYRQAPGKERELVAAITWRASTYYADSVKGRFTISRDNAKNTVYLQMNSLKPEDTAVYYCAVRDYRPRYYTFLYNSPYDYWGQGTQVTVSS | high polyreactivity
QVQLVESGGGLVQAGGSLRLSCAASGSIFVFYAMGWYRQAPGKERELVAAITRSGGRTYADSVKGRFTISRDNAKNTVYLQMYSLKPEDTAVYYCNAGTYWYNGRYTRSAHDYWGQGTQVTVSS | high polyreactivity
QVQLVESGGGLVQAGGSLRLSCAASGFIFWTNTMGWYRQAPGKERELVAAISRSGGSTYYADSVKGRFTISRDNAKNTVYLQMNSLKPEDTAVYYCAKGYRGYSYGYWGQGTQVTVSS | high polyreactivity
QVQLVESGGGLVQAGGSLRLSCAASGYTFNKYAMGWYRQATGKGRELVATIRNGGNTYYADSVKGRFTISRDNAKITVYFQMNSLKPEDTAVYYCAATVRGVGYRYYYWGQGTQVTVSS | high polyreactivity
QVQLVESGGGLVQAGGSLRLSCPASGFNFLYYAMGWYRQAPGTEREFVAAIRSSGTTTSYADSVKGRFTISRDNAKNTVYLEMISLKPVDTAVYYCAAGYFGPQQYYYWGQGSQVTVSS | high polyreactivity
QVQLVESGGGLVQAGGSLRLSCAASGRILILNAMGWYRQAPGKERELVAAITNGGSTNYADSVKGRFTISRDNAKNSVYLQMNSLKPEDTAVYYCAARLYSYDYYTVLKLFDYWGQGTQVTVSS | low polyreactivity
QVQLVESGGGLVQAGGSLRLSCAASGRIFFGYAMGWYRQAPGKEREFVAAITRRGGSTYYADSVKGRFTISRDNAKNTVYLQMNSLKPEDTADYYCAKDTIGGASPHYYWGQGTQVTVSS | high polyreactivity
QVQLVESGGGLVQAGGSLRLSCAASGLTFGYYAMGWYRQAPGKERELVAAISVSGSTYYADSVKGRFTISRDNAKNTVYLQMNSLKPEDTAVYYCNRAIGYRKELDYWGQGTQVTVSS | high polyreactivity
QVQLVESGGGLVQAGGSLRLSCAASGRTFYPYAMGWYRQAPGKERELVAAISYRGGSTYYADSVKGRFTISRDNAKNTVYLQMNSLKPEDTAVYYCAKRGYASGSKWDYGYWGQGTQVTVSS | high polyreactivity
QVQLVESGGGLVQAGGSLRLSCASYGYTFFNYAKGWYRQAPGKERELVAAITTGGSTYYADSVKGRFTISRDNAKNTVYLQMNSLKPEDTAVYYCPFDYWGQGTQVTVSS | high polyreactivity
QVQLVESGGGLVQAGGSLRLSCAASAFTFPGNAMGWYRHATGKERQLVAAISGTGGSTYYADSVKGRFTISRDNAKNTVYLQMNSLKPEDTAVYYCAARLGGRRRFGYWGQGTQVTVSS | high polyreactivity
QVQLQESGGGLEQAGGSLRLSCAATGTIFTDRFMGWYRQAPGKERELVAGISPGTSSNSADSVKGRFTISRDNAKNTVYLQMNSLKPEDTAVYYCAADWSTGNTLPYWGQGTQVTVSS | high polyreactivity
QVQLVESGGGLVQAGGSLRLSCAASGSIFTDNAMGWYRQAPGKERELVAGISYNGDNTYYADSVKGRFTISRDNAKNTVYLQMNSLKPEDTAVYYCAAADGIIESDYWGQGTQVTVSS | low polyreactivity
